# B1: gp120-Ab8 (antibody, V domains shown)
# VH: EVQLVESGGGVVQPGRSLRLSCAASGFTFSFYGMHWVRQAPGKGLEWVAVISYDGRIKSYADSVKGRFTTSRDNSKNTLYLEMSSLRVEDTAVYYCAKSLVGATLLGPFGPWGQGSLVTVSS
# VL: SYELTQPPSVSVAPGQTARITCGGDKIGGERVHWYQQKPGQAPVLVVYDDRDRPSGIPERFSGSNSGNTATLTISRVEAGDEADYYCQVRDSTSDHYVFGSGTKVTVL
# Molecular target: HIV-1 92BR-gp120 (HIV-1 (92BR))
# Experiment: BLI
binder,measurement,value
B1,Kd,89.3 nM

# Source: paper PMC5551578
